{
  "source": "paper PMC5175582",
  "key": {"[1]": {"target": "Biotin-labelled MMRN1 (human) (UniProt Q13201)", "sequence (Q13201 20-1228)": "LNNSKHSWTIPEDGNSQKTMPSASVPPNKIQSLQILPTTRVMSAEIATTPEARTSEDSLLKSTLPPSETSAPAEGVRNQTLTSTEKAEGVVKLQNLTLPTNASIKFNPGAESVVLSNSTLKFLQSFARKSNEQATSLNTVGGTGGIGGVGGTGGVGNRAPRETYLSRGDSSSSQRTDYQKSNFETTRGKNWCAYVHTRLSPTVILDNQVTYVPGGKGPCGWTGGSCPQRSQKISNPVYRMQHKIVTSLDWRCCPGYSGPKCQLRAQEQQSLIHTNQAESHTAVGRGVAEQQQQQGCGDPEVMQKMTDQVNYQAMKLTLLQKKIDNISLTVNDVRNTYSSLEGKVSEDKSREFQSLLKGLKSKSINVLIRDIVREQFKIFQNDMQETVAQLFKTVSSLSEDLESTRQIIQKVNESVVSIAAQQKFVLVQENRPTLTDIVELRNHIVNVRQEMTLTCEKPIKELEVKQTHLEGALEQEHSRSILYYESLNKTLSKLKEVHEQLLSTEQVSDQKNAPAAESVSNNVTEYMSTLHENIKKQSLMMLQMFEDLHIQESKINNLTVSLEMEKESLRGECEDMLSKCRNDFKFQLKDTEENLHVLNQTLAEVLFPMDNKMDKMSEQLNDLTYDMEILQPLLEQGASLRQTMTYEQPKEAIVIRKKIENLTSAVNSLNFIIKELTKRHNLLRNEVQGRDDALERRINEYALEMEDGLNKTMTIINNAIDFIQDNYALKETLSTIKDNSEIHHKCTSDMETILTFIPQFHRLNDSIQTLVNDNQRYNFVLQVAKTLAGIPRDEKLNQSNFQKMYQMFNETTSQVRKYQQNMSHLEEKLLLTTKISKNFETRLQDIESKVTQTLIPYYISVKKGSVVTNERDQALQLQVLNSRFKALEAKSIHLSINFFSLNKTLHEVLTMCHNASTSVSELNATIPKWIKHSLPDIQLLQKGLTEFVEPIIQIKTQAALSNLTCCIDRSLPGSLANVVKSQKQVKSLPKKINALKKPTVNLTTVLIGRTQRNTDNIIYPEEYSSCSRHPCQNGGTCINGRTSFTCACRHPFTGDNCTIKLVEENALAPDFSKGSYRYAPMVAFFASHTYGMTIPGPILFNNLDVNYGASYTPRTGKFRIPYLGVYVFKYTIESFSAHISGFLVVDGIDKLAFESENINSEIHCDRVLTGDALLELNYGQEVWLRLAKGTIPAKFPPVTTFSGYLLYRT", "assay": "SPR; BIAcoreX; biotin-labelled MMRN1 immobilised on streptavidin-coated sensor chips (500–1000 RU); VWF A domains perfused in HEPES-Tyrode running buffer with 0.005 % P-20; two-state conformational model for A1A2A3 and A1, 1:1 Langmuir model for A3; apparent affinity"}, "[2]": {"target": "full-length wild-type (WT)-VWF (UniProt P04275)", "assay": "ELISA; modified ELISA; MMRN1 immobilised; WT-VWF (1 µg/ml) added simultaneously with collagen peptide (250 μg/ml, no preincubation with VWF); treatment of VWF not stated for this panel"}},
  "data": [
    {"substance": "Monomeric VWF A1 domain (domain or fragment)", "values": [
      {"measurement": "Kd", "setting": "[1]", "value": 39.3, "unit": "nM"},
      {"measurement": "ka1 (two-state model, first step)", "setting": "[1]", "value": "1.2e+06", "unit": "M⁻¹ s⁻¹"},
      {"measurement": "ka2 (two-state model, second step)", "setting": "[1]", "value": 0.01, "unit": "s⁻¹"},
      {"measurement": "kd1 (two-state model, first step)", "setting": "[1]", "value": 0.13, "unit": "s⁻¹"},
      {"measurement": "kd2 (two-state model, second step)", "setting": "[1]", "value": 0.0032, "unit": "s⁻¹"}
    ]},
    {"substance": "Triple-helical type III collagen peptide GPRGQOGVMGFO", "values": [
      {"measurement": "percent reduction of WT-VWF binding to immobilised MMRN1", "setting": "[2]", "value": 70, "unit": "%"}
    ]}
  ]
}
